Where a chain is given by its changes, count along the chain named.
Molecular target: T1, human transferrin receptor (BIAcore, construct not stated) (human, UniProt P02786 89-760)
T1 construct: also called huTfR
Assay: SPR, 25 C

T1 sequence (P02786 89-760): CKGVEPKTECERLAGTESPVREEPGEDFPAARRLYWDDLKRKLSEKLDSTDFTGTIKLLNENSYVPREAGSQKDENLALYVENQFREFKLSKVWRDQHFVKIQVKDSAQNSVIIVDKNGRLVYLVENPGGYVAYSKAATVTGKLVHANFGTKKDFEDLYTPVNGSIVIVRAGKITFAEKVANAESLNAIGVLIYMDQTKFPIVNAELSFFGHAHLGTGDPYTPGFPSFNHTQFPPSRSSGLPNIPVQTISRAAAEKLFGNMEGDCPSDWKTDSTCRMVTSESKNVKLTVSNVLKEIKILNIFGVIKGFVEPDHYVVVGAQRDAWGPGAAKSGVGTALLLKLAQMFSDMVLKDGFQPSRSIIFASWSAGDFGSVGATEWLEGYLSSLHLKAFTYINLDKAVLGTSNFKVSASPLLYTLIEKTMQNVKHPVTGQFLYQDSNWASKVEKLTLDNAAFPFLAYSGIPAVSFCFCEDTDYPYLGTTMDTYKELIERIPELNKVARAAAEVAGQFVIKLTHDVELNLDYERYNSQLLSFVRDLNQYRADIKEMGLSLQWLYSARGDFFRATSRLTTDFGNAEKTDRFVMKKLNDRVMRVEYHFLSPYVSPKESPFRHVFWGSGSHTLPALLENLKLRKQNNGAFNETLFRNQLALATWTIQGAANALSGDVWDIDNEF

B1: clone 299 VH 0 (rb) / VL 5 (antibody, V domains shown)
VH: QSMEESGGRLVTPGTPLTLTCTVSGFSLSSYAMSWVRQAPGKGLEWIGYIWSGGSTDYASWAKGRFTISKTSTTVDLKITSPTTEDTATYFCARRYGTSYPDYGDANGFDPWGPGTLVTVSS
VL: DIQMTQSPSSLSASVGDRVTITCRASQSISSYLSWYQQKPGKAPKLLIYRASTLASGVPSRFSGSGSGTDFTLTISSLQPEDFATYYCQQSYSSSNVDNTFGGGTKVEIK
koff: 0.00194 s⁻¹

B2: clone 299 VH 0 (rb) / VL 14 (antibody, V domains shown)
VH: B1 VH
VL: DIVMTQSPDSLAVSLGERATINCKSSQSISSYLSWYQQKPGQRPKLLIYRASTLASGVPDRFSGSGSGTDFTLTISSLQAEDVAVYYCQQSYSSSNVDNTFGGGTKVEIK
koff: 0.00178 s⁻¹

B3: clone 299 VH 0 (rb) / VL 15 (antibody, V domains shown)
VH: B1 VH
VL: B2 VL with S34I, R43P, S91A
koff: 0.00663 s⁻¹

B4: clone 299 VH 0 (rb) / VL 6 (antibody, V domains shown)
VH: B1 VH
VL: B1 VL with D1A, M4L
koff: 0.0019 s⁻¹

B5: clone 299 VH 17 / VL 9-NYA (antibody, V domains shown)
VH: QQLQESGPGLVKPSETLSLTCTVSGFSLSSYAMSWVRQPPGKGLEWIGYIWSGGSTDYNPSLKSRVTISKDTSKNQVSLKLSSVTAADTAVYYCARRYGTSYPDYGDANGFDPWGPGTLVTVSS
VL: B1 VL with D1A, M4L, S34A, S91N, S93A
koff: 0.000934 s⁻¹

B6: clone 299 VH 0 (rb) / VL 17 (antibody, V domains shown)
VH: B1 VH
VL: B1 VL with D1A, M4L, S34A, S91T
koff: 0.00149 s⁻¹

B7: clone 299 VH 11 / VL 9-NYA (antibody, V domains shown)
VH: QQLLESGGGLVQPGGSLRLSCAASGFSLSSYAMSWVRQAPGKGLEWVGYIWSGGSTDYADSVKGRFTISRDNSKNTLYLQMNSLRAEDTAVYYCARRYGTSYPDYGDANGFDPWGQGTLVTVSS
VL: B1 VL with D1A, M4L, S34A, S91N, S93A
koff: 0.00242 s⁻¹

B8: clone 299 VH 16 / VL 9-NYA (antibody, V domains shown)
VH: B5 VH with K70V
VL: B1 VL with D1A, M4L, S34A, S91N, S93A
koff: 0.00136 s⁻¹

B9: clone 299 VH 9 / VL 9-NYA (antibody, V domains shown)
VH: B7 VH with S27T, L28F, R96K
VL: B1 VL with D1A, M4L, S34A, S91N, S93A
koff: 0.00252 s⁻¹

B10: clone 299 VH 0 (rb) / VL 8 (antibody, V domains shown)
VH: B1 VH
VL: B1 VL with D1A, I2Y, M4L
koff: 0.00139 s⁻¹

B11: clone 299 VH 15 / VL 9-NYA (antibody, V domains shown)
VH: B5 VH with K70V, P116Q
VL: B1 VL with D1A, M4L, S34A, S91N, S93A
koff: 0.00142 s⁻¹

B12: clone 299 VH 18 / VL 9-NYA (antibody, V domains shown)
VH: QVQLQESGPGLVKPSQTLSLTCTVSGFSLSSYAMSWIRQHPGKGLEWIGYIWSGGSTDYAPSLKSRVTISVDTSKNQFSLKLSSVTAADTAVYYCARRYGTSYPDYGDANGFDPWGQGTLVTVSS
VL: B1 VL with D1A, M4L, S34A, S91N, S93A
koff: 0.00221 s⁻¹

B13: clone 299 VH 20 / VL 9-NYA (antibody, V domains shown)
VH: B5 VH with Q2S, L3M, E15Q, V36I, P39H, N59A, K70V, P116Q
VL: B1 VL with D1A, M4L, S34A, S91N, S93A
koff: 0.00189 s⁻¹

B14: clone 299 VH 12 / VL 9-NYA (antibody, V domains shown)
VH: B12 VH with Q16E, H40P, A60N
VL: B1 VL with D1A, M4L, S34A, S91N, S93A
koff: 0.00219 s⁻¹

B15: clone 299 VH 13 / VL 9-NYA (antibody, V domains shown)
VH: B12 VH with Q16E, H40P, A60N, F78V
VL: B1 VL with D1A, M4L, S34A, S91N, S93A
koff: 0.00139 s⁻¹

B16: clone 299 VH 0 (rb) / VL 7 (antibody, V domains shown)
VH: B1 VH
VL: B1 VL with D1A, M4L, S34A
koff: 0.00463 s⁻¹

B17: clone 299 VH 0 (rb) / VL 12 (antibody, V domains shown)
VH: B1 VH
VL: B1 VL with S34A, G66R, S91H
koff: 0.00541 s⁻¹

B18: clone 299 VH 19 / VL 9-NYA (antibody, V domains shown)
VH: B5 VH with Q2S, L3M, E15Q, V36I, P39H, N59A, K70V, V77F, P116Q
VL: B1 VL with D1A, M4L, S34A, S91N, S93A
koff: 0.00617 s⁻¹

B19: clone 299 VH 0 (rb) / VL 10 (antibody, V domains shown)
VH: B1 VH
VL: B1 VL with G66R
koff: 0.00188 s⁻¹

B20: clone 299 VH 21 / VL 9-NYA (antibody, V domains shown)
VH: QSMQESGPGLVKPSQTLSLTCTVSGFSLSSYAMSWIRQHPGKGLEWIGYIWSGGSTDYASWAKSRVTISVDTSKNQVSLKLSSVTAADTAVYYCARRYGTSYPDYGDANGFDPWGQGTLVTVSS
VL: B1 VL with D1A, M4L, S34A, S91N, S93A
koff: 0.00113 s⁻¹

B21: clone 299 VH 22 / VL 9-NYA (antibody, V domains shown)
VH: B20 VH with I36V
VL: B1 VL with D1A, M4L, S34A, S91N, S93A
koff: 0.00126 s⁻¹

B22: clone 299 VH 20 / VL 0 (rb) (antibody, V domains shown)
VH: B20 VH with S60P, W61S, A62L
VL: AYDMTQTPASVEVAVGGTVTIKCQASQSISSYLSWYQQKPGQRPKLLIYRASTLASGVSSRFKGSGSGTQFTLTISGVECADAATYYCQQCYSSSNVDNTFGGGTEVVVK
koff: 0.00111 s⁻¹

B23: clone 299 VH 12 / VL 0 (rb) (antibody, V domains shown)
VH: B12 VH with Q16E, H40P, A60N
VL: B22 VL
koff: 0.000921 s⁻¹

B24: clone 299 VH 23-DANG / VL 0 (rb) (antibody, V domains shown)
VH: QSMQESGPGLVKPSQTLSLTCTVSGFSLSSYAMSWIRQHPGKGLEWIGYIWSGGSTDYASWAKSRVTISKTSTTVSLKLSSVTAADTAVYYCARRYGTSYPDYGDANGFDPWGQGTLVTVSS
VL: B22 VL
koff: 0.000338 s⁻¹

B25: clone 299 VH 11 / VL 0 (rb) (antibody, V domains shown)
VH: B7 VH
VL: B22 VL
koff: 0.000905 s⁻¹

B26: clone 299 VH 15 / VL 0 (rb) (antibody, V domains shown)
VH: B5 VH with K70V, P116Q
VL: B22 VL
koff: 0.000763 s⁻¹

B27: clone 299 VH 22 / VL 0 (rb) (antibody, V domains shown)
VH: B20 VH with I36V
VL: B22 VL
koff: 0.000506 s⁻¹

B28: clone 299 VH 18 / VL 0 (rb) (antibody, V domains shown)
VH: B12 VH
VL: B22 VL
koff: 0.00109 s⁻¹

B29: clone 299 VH 19 / VL 0 (rb) (antibody, V domains shown)
VH: B20 VH with S60P, W61S, A62L, V77F
VL: B22 VL
koff: 0.001 s⁻¹

B30: clone 299 VH 9 / VL 0 (rb) (antibody, V domains shown)
VH: B7 VH with S27T, L28F, R96K
VL: B22 VL
koff: 0.000901 s⁻¹

B31: clone 299 VH 21 / VL 0 (rb) (antibody, V domains shown)
VH: B20 VH
VL: B22 VL
koff: 0.000565 s⁻¹

B32: clone 299 VH 1 / VL 0 (rb) (antibody, V domains shown)
VH: B7 VH with Q1V, L4V, S6T, V11I
VL: B22 VL
koff: 0.000908 s⁻¹

B33: clone 299 VH 5 / VL 0 (rb) (antibody, V domains shown)
VH: B7 VH with Q2S, L3M, L4E, S6T, V11I, Q116P
VL: B22 VL
koff: 0.000772 s⁻¹

B34: clone 299 VH 16 / VL 0 (rb) (antibody, V domains shown)
VH: B5 VH with K70V
VL: B22 VL
koff: 0.000653 s⁻¹

B35: clone 299 VH 17 / VL 0 (rb) (antibody, V domains shown)
VH: B5 VH
VL: B22 VL
koff: 0.000413 s⁻¹

B36: clone 299 VH 7 / VL 0 (rb) (antibody, V domains shown)
VH: B7 VH with L4V, S6T, V11I, V47I, D60S, S61W, V62A
VL: B22 VL
koff: 0.000515 s⁻¹
